The results in this text go back to US20250361296A1 (BIOCYTOGEN PHARMACEUTICALS BEIJING, published 2025).

Sequences and labels used below:
B1: anti-SIGLEC15 antibody 10C9 (antibody, human IgG1, V domains shown)
VH: QVQLVQSGAEVKKPGATVKVSCKASGYTFTNYGFSWVRQAPGQGLEWMGWINTYNDNTNYAQKFQGRVTMTTDTSTSTAYMELRSLRSDDTAVYYCARDGLWFGELPHYFDYWGQGTLVTVSS
VL: DIQLTQSPLSSPVTLGQPASISCRSSQSLVNSDGETFLSWLQQRPGQPPRLLIYKISNRFSGVPDRFSGSGAGTDFTLKISRVEAEDVGVYYCMQATQFPHTFGQGTKLEIK
B2: anti-SIGLEC15 antibody 23F4 (antibody, human IgG1, V domains shown)
VH: QVQLQQWGAGLLKPSETLSLTCAVYGGSFSGYFWSWIRQPPGKGLEWIGEINHSGSTNYNPSLKSRVTLSVDTSKNQFSLKLSSVTAADTAVYYCAREGDSSSWGNWFDPWGQGTLVTVSS
VL: EIVLTQSPGTLSLSPGERATLSCRASQSVSSSYLAWYQQKPGQAPRFLIYGASSRATGIPDRFSGSGSGTDFTLTISRLEPEDFAVYYCQQFGNSPLTFGGGTKVEIK
B3: anti-SIGLEC15 antibody 10A7 (antibody, human IgG1, V domains shown)
VH: EVQLVQSGGGLVQPGGSLRLSCAASGFTFSNYEMNWVRQAPGKGLEWISYISNSGSTIYYADSVKGRFTISRDDAKNSLYLQMNSLRAEDTAVYYCAREDYDSSGYYWFDPWGQGTPVTVSS
VL: DIQLTQSPSSVSASVGDRVTITCRASQGISSWLAWYQQKPGKAPKLLIYAASSLQSGVPSRFSGSGSGTDFTLTINSLQPEDFATYYCQQTNSFPLTFGGGTKVEIK

For the first test, the target named is human SIGLEC1 on CHO-S-hSIGLEC1 cells (human, UniProt Q9BZZ2 20-1641). Briefly: flow cytometry, CHO-S cells expressing the target. For Percentage of Positive Cells: test concentration or dose not given here. The method, then: (§1) CHO-S-hSIGLEC15 cells, CHO-S-mSIGLEC15 cells, CHO-S-fasSIGLEC15 cells or CHO-S-dSIGLEC15 cells were transferred to a 96-well plate at a density of 5×10⁴ cells/well respectively. Serially diluted sample anti-SIGLEC15 antibodies were added to the 96-well plate, and incubated at 4° C. for 30 min. Then, the cells were incubated with the secondary antibody anti-hIgG-Fc-Alex Flour 647 (RL1-H) (Jackson ImmunoResearch Laboratories, Inc., 109-606-170) at 4° C. in the dark for 15 minutes before flow cytometry analysis.
Sequence of human SIGLEC1 on CHO-S-hSIGLEC1 cells (Q9BZZ2 20-1641): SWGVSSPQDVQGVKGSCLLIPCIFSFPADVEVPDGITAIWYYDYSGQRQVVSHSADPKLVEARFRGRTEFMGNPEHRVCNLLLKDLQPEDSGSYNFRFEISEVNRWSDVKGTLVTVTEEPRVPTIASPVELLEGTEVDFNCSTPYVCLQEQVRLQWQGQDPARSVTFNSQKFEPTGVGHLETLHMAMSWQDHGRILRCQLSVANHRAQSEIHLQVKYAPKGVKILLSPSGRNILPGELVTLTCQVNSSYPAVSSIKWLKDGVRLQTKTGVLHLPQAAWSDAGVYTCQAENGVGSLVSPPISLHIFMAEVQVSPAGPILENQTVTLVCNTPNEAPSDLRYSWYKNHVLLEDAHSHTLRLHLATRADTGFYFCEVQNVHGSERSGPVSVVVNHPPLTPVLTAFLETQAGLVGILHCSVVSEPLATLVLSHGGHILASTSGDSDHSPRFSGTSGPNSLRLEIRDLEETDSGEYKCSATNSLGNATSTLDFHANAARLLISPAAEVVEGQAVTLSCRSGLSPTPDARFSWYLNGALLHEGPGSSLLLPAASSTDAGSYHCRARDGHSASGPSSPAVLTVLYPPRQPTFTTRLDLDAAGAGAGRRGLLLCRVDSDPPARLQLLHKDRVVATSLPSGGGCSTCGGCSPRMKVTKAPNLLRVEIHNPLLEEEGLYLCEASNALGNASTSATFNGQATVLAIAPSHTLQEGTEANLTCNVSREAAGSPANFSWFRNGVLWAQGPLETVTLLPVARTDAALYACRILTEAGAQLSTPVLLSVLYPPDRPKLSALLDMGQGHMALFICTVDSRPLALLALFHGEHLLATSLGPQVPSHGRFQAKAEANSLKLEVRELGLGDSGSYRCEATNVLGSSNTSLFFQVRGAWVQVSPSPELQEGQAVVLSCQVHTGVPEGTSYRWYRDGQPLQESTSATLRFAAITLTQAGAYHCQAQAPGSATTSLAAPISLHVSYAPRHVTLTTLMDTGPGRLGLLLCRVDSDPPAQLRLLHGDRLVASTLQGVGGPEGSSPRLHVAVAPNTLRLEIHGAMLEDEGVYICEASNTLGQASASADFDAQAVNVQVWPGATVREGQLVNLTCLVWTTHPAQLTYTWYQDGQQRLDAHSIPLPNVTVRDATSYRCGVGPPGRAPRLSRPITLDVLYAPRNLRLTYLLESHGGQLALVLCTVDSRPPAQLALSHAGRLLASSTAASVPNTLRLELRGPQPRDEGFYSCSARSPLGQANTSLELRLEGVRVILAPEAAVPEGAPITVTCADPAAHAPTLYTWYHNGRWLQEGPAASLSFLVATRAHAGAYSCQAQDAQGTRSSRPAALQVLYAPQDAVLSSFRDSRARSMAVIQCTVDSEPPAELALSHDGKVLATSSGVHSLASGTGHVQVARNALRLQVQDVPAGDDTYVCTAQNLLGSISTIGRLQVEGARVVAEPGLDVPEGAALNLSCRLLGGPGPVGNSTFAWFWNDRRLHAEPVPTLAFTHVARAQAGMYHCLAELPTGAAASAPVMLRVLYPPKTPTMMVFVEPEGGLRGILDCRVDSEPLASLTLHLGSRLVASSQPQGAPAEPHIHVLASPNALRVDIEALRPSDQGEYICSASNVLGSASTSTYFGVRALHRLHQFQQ
(§2) Another similar experiment was performed to determine whether the anti-SIGLEC15 antibodies can bind with other SIGLEC family proteins. CHO-S-hSIGLEC1 cells (expressing hSIGLEC1, SEQ ID NO: 49)), CHO-S-hSIGLEC2 cells (expressing hSIGLEC2, SEQ ID NO: 50), CHO-S-hSIGLEC4 cells (expressing hSIGLEC4, SEQ ID NO: 51), CHO-S-hSIGLEC5 cells (expressing hSIGLEC5, SEQ ID NO: 52), CHO-S-hSIGLEC6 cells (expressing hSIGLEC6, SEQ ID NO: 53), CHO-S-hSIGLEC7 cells (expressing hSIGLEC7, SEQ ID NO: 54), CHO-S-hSIGLEC8 cells (expressing hSIGLEC8, SEQ ID NO: 55), CHO-S-hSIGLEC9 cells (expressing hSIGLEC9, SEQ ID NO: 56), CHO-S-hSIGLEC10 cells (expressing hSIGLEC10, SEQ ID NO: 57), CHO-S-hSIGLEC11 cells (expressing hSIGLEC11, SEQ ID NO: 58), CHO-S-hSIGLEC12 cells (expressing hSIGLEC12, SEQ ID NO: 59), CHO-S-hSIGLEC14 cells (expressing hSIGLEC14, SEQ ID NO: 60) or CHO-S-hSIGLEC16 cells (expressing hSIGLEC16, SEQ ID NO: 61) were used.
A general note: Flow cytometry measures light scatter and fluorescence of single cells or particles in a stream.
Turning to B1, the “Percentage of Positive Cells” value was found to be 0.1% and the binding result is given as “no binding”.
Turning to B2, the “Percentage of Positive Cells” value is 1.1% and the binding result is listed as “no binding”.
Take B3: the “Percentage of Positive Cells” value was 0% and the binding result was “no binding”.

The target of a further test is T1, human SIGLEC10 on CHO-S-hSIGLEC10 cells (human, UniProt Q96LC7 17-550).
T1 sequence: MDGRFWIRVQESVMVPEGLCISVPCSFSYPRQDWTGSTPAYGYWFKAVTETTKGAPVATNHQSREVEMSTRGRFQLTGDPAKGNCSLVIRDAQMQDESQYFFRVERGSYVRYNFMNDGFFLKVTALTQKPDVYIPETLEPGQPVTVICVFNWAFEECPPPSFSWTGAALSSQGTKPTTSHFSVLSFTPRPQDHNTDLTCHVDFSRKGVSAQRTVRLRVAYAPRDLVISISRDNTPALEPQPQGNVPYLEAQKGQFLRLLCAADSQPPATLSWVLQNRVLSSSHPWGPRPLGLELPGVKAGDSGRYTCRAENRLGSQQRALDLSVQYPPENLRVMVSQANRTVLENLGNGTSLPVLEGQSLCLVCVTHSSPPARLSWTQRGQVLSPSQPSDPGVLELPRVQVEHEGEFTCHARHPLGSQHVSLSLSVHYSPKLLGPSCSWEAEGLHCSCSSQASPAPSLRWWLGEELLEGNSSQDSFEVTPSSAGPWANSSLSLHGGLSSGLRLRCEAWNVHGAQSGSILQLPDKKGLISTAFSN
In words: flow cytometry, CHO-S cells expressing the target. For Percentage of Positive Cells: test concentration or dose not given here. The method, then:
as §1, §2
Turning to B1, the “Percentage of Positive Cells” value came to 1.5% and the binding result is on record as “no binding”.
The like results for B2 were, in that order, 1.6% and “no binding”.
In the case of B3, the “Percentage of Positive Cells” value worked out at 1.4% and the binding result is reported as “no binding”.

Another test concerns the target T2, human SIGLEC5 on CHO-S-hSIGLEC5 cells (human, UniProt O15389 17-441).
T2 sequence: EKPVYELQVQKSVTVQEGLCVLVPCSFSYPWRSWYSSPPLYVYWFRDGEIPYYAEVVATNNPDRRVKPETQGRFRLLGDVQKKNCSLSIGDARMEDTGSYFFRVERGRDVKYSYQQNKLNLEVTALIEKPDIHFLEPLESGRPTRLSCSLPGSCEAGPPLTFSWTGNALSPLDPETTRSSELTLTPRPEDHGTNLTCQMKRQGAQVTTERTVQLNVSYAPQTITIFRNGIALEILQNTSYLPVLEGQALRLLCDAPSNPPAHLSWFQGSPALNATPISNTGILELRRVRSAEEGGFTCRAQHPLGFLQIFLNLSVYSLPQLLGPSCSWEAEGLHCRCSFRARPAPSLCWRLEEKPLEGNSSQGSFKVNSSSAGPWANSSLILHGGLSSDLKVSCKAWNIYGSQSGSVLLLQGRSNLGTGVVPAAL
In words: flow cytometry, CHO-S cells expressing the target. For Percentage of Positive Cells: test concentration or dose not given here. The procedure:
as §1, §2
B1: the “Percentage of Positive Cells” value is 0.2% and the binding result is “no binding”.
For the molecule B2, the “Percentage of Positive Cells” value amounted to 7% and the binding result is reported as “no binding”.
Consider B3, for which the “Percentage of Positive Cells” value was 0.2% and the binding result is recorded as “no binding”.

Another test concerns the target T3, human SIGLEC4 on CHO-S-hSIGLEC4 cells (human, UniProt P20916 20-516).
T3 sequence: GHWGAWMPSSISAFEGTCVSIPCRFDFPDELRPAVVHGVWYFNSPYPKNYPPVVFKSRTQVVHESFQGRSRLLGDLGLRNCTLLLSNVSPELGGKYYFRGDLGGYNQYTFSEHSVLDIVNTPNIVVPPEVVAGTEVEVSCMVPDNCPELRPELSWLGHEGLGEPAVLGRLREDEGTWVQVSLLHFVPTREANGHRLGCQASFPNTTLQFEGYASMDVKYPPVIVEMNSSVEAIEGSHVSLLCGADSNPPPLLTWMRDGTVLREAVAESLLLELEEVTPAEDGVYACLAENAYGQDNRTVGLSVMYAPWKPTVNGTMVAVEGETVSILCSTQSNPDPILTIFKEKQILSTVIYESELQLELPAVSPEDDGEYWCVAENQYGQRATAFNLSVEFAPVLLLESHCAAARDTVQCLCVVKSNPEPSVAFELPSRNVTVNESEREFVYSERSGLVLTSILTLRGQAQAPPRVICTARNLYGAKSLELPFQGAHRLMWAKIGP
In words: flow cytometry, CHO-S cells expressing the target. For Percentage of Positive Cells: test concentration or dose not given here. The method, then:
as §1, §2
B1: the “Percentage of Positive Cells” value worked out at 1.2% and the binding result is given as “no binding”.
As for B2, the “Percentage of Positive Cells” value was found to be 0.8% and the binding result is listed as “no binding”.
As for B3, the “Percentage of Positive Cells” value amounted to 1.1% and the binding result is “no binding”.
